From publication doi:10.1101/797449

Target: dsRBD1 of human TAR RNA Binding Protein (TRBP2) (human)
Experiment: SEC-MALS

population of tetramer relative to monomer: 0.25
stoichiometry N: 4
Substance: dsRBD1 of human TAR RNA Binding Protein (TRBP2) (domain or fragment)
